Patent US7790682B1, “Engineered human acidic fibroblast growth factors and associated methods” (The Florida State University Research Foundation, Inc., priority 2003, dated 2010)
“And” between values parts separate entries of the source, which are not always exact repeats. Identical values can stand only once.

B1: SYM6/ΔΔ: SYM6 FGF-1 mutant plus both Δ104-106 and Δ120-122 deletion mutations, SEQ ID NO: 1 (protein)
chain: FNLPPGNYKKPKLLYCSNGGHFLRILPDGTVDGTRDRSDQHIQFQLSAESVGEVYIKSTETGQYLAIDTDGLVYGSQTPNEECLFLERLEENHYNTYISKKHGWFLGIKKNGSVKGTHYGQKAILFLPLPVSSD
modifications: Human FGF-1 mutant SYM6DD
B2: SYM5: FGF-1 core mutant Leu44→Phe/Leu73→Val/Val109→Leu/Leu111→Ile/Cys117→Val (protein, UniProt P05230 16-155, looked up, variant L44F L73V V109L L111I C117V)
Fibroblast growth factor 1: FNLPPGNYKKPKLLYCSNGGHFLRILPDGTVDGTRDRSDQHIQFQLSAESVGEVYIKSTETGQYLAMDTDGLVYGSQTPNEECLFLERLEENHYNTYISKKHAEKNWFLGIKKNGSVKRGPRTHYGQKAILFLPLPVSSD
B3: SYM5/Δ120-122: SYM5 FGF-1 mutant plus Arg119→Gly/ΔGly120/ΔPro121/ΔArg122, SEQ ID NO: 2 (protein)
chain: FNLPPGNYKKPKLLYCSNGGHFLRILPDGTVDGTRDRSDQHIQFQLSAESVGEVYIKSTETGQYLAMDTDGLVYGSQTPNEECLFLERLEENHYNTYISKKHAEKNWFLGIKKNGSVKGTHYGQKAILFLPLPVSSD
modifications: Human FGF-1 mutant SYM5D120-122
B4: SYM5/Δ104-106: SYM5 FGF-1 mutant plus Ala103→Gly/ΔGlu104/ΔLys105/ΔAsn106 (protein, UniProt P05230 16-155, looked up, variant L44F L73V V109L L111I C117V A103G del104-106)
Fibroblast growth factor 1: FNLPPGNYKKPKLLYCSNGGHFLRILPDGTVDGTRDRSDQHIQFQLSAESVGEVYIKSTETGQYLAMDTDGLVYGSQTPNEECLFLERLEENHYNTYISKKHGWFLGIKKNGSVKRGPRTHYGQKAILFLPLPVSSD

How the values were obtained:
[1] = Isothermal equilibrium denaturation in guanidine HCl monitored by CD; format: physicochemical; details: for Cm / m-value / ΔG0: GuHCl, 298K, CD signal at 227 nm; for ΔΔG: relative to WT*, negative value = more stable
Experimental: Protein samples were equilibrated overnight in 20 mM N-2-(acetamido)iminodiacetic acid (ADA), 100 mM NaCl pH 6.60 at 298K in 0.1M increments of guanidine HCl (GuHCl). All samples contained a final protein concentration of 25 μM. An Aviv model 202 circular dichroism spectrometer (Proterion Corp., Piscataway, N.J.) equipped with a Peltier controlled temperature unit maintaining a constant temperature of 298K was used for all spectroscopic measurements. For each sample, triplicate scans were collected and averaged. Buffer traces were collected, averaged and subtracted from the sample traces. Data smoothing was performed prior to buffer subtraction using a 5-point Fourier transform filter. The denaturation process was monitored by observing the change in CD signal at 227 nm with increasing GuHCl, according to published references. The general purpose non-linear least squares fitting program DataFit™ (Oakdale Engineering, Oakdale Pa.) was used to fit the change in molar ellipticity at 227 nm versus GuHCl concentration to a six parameter two state model: F=(F0N+SN[D]+F0D+SD[D])e^−((ΔG0+m[D]/RT)/1+e^−((ΔG0+m[D]/RT) (1) where [D] is the denaturant concentration, F0N and F0D are the 0M denaturant molar ellipticity intercepts for the native and denatured states, respectively, and SN and SD are the slopes of the native and denatured state baselines, respectively. ΔG0 and m describe the linear function of the unfolding free energy versus denaturant concentration at 298K. The effect of a given mutation upon the stability of the protein (ΔΔG) was calculated by taking the difference between the Cm values for WT* and mutant and multiplying by the average of the m values, as described by Pace and Scholtz (Measuring the conformational stability of a protein; in Protein Structure: A Practical Approach, Creighton, T. E., ed., pp. 299-321, Oxford University Press, Oxford; 1997): ΔΔG=(CmWT*−Cm mutant)(mWT*+mmutant)/2 (2) Folding Kinetics Measurements.
Previous studies by others of the stability and folding of FGF-1 have been performed by monitoring the fluorescence signal of the single buried Trp 107 in FGF-1. This Trp in the WT* structure is somewhat unusual in that it is more highly quenched in the native state than the denatured. […] We have previously compared the fluorescence and CD spectroscopic response of FGF-1 to denaturation by GuHCl and shown essentially indistinguishable results for both his-tagged and non-his-tagged forms. A tabulation of the mutant thermodynamic data from isothermal equilibrium denaturation, monitored by CD signal, is listed in Table II. The data in this table for the SYM6 mutant are from our previously published isothermal equilibrium denaturation study monitored by fluorescence.

[2] = Folding and unfolding kinetics (Chevron plot, stopped-flow CD, GuHCl); format: physicochemical; details: for kf: folding rate constant extrapolated to 0M GuHCl; for kf / ku: global Chevron fit; for ΔΔG‡-D / ΔΔG‡-N: in reference to WT*; for ΔΔG‡-D: positive value = decrease in folding activation barrier; for ΔΔG‡-N: positive value = decrease in unfolding activation barrier; for mf: slope of ln(kf) vs GuHCl; for mu: slope of ln(ku) vs GuHCl; for ku: unfolding rate constant extrapolated to 0M GuHCl
Experimental: Due to signal-to-noise considerations, relatively high protein concentrations (>100 μM) of FGF-1 were required for kinetic studies monitored by CD. At these concentrations protein precipitation occurred in ADA buffer. Therefore, a different buffering system was chosen for the kinetic studies to permit higher protein concentrations without precipitation. Protein samples were dialyzed against 50 mM sodium phosphate, 100 mM NaCl, 10 mM ammonium sulfate, 2 mM DTT, and typically 2.5, 3.0 or 3.8M GuHCl pH 7.5 overnight at 298K prior to data collection (higher concentrations of GuHCl were required to ensure complete denaturation for some stabilizing mutations).
Protein samples were degassed for 10 minutes prior to analysis. Refolding was initiated by a 1:10 dilution of protein solutions into 50 mM sodium phosphate, 100 mM NaCl, 10 mM ammonium sulfate, 2 mM DTT pH 7.5 containing either 0.1M or 0.05M increments of GuHCl up to the midpoint of denaturation. All data were collected using an Aviv model SF305 stopped flow system. Data collection times for each protein were designed to quantify the CD signal over 5 half-lives, or >96% of the total expected amplitude.
Protein samples (300 μM) were dialyzed against 50 mM sodium phosphate, 100 mM NaCl, 10 mM ammonium sulfate, 2 mM DTT pH 7.50 buffer overnight at 298K, and degassed for 10 min prior to data collection. Unfolding was initiated by 1:10 dilution of the native protein into 50 mM sodium phosphate, 100 mM NaCl, 10 mM ammonium sulfate, 2 mM DTT pH 7.5 buffer with final GuHCl concentration in the range of 1.5 to 5.5M in 0.5M increments. The unfolding process was quantified by following the change in CD signal at 227 nm, and data collection times for each protein were designed so as to monitor the CD signal over 3 to 4 half-lives, or >93% of the total expected amplitude.
Triplicate scans were collected for both folding and unfolding kinetic data at each GuHCl buffer condition. In all cases, data from at least three separate experiments were averaged. The kinetic rates and amplitudes versus denaturant concentration were calculated from the time dependent change in CD signal using a single exponential model: I(t)=Aexp(−kt)+C (3) where I(t) is the intensity of CD signal at time t, A is the corresponding amplitude, k is the observed rate constant for the reaction and C is a constant that is the asymptote of the CD signal. Folding and unfolding rate constant data were fit to a global function describing the contribution of both rate constants to the observed kinetics as a function of denaturant (“Chevron” plot): In(kobs)=In(kf0exp(mkfD)+ku0exp(mkuD)) (5) where kf0 and ku0 are the folding and unfolding rate constants, respectively, extrapolated to 0M denaturant, mkf and mku are the slopes of the linear functions relating In(kf) and In(ku), respectively, to D, the denaturant concentration. Changes in activation barriers upon mutation were calculated using a modified version of transition state theory: ΔΔG‡-D=RTIn(kf Mut/kfWT*) and ΔΔG‡-N=RTIn(ku Mut/kuWT*) (6) where kf Mut, ku Mut, kf WT* and ku WT* are the folding and unfolding rates for mutant and WT*, respectively, in water. ΔΔG‡-D, and ΔΔG‡-N are the changes in the activation barrier for folding and unfolding, respectively, between mutation and WT*. A positive value for ΔΔG‡-D or ‡‡G‡-N indicates a decrease in the associated activation barrier energy. Isothermal Titration Calorimetry.
Due to the relatively weak differential CD signal of native and denatured FGF-1, the folding kinetics study required relatively high protein concentrations (>5 mg/ml). […] Thus, the refolding rate constants were not obtainable below certain denaturant concentrations for these mutants. […] The SYM6Δ120-122 mutant is substantially destabilized relative to the WT* protein (see Table II) and presents a relatively short “folding arm” in the Chevron plot, for this reason there is greater uncertainty associated with the folding kinetics determined for this mutant. […]

Row | Molecule | Cm [1] [M] | m-value [1] [kJ/mol M] | ΔG0 [1] [kcal/mol] | ΔΔG [1] [kcal/mol] | kf [2] [s⁻¹] | ΔΔG‡-D [2] [kcal/mol] | ΔΔG‡-N [2] [kcal/mol] | mf [2] [M⁻¹] | mu [2] [M⁻¹] | ku [2] | increase in protein stability ([1]; in comparison to WT*) | folding behavior ([2]; all denaturant concentrations evaluated) | effect on stability of insertion of both loop regions ([1]; relative to SYM5ΔΔ)
1 | WT*: Wild type (his-tagged) 140 amino acid form of human FGF-1, SEQ ID NO: 4 [reference compound] | 1.06 ± 0.01 | 20.1 ± 0.5 | 5.09 ± 0.19 | 0 | 3.31 | 0 | 0 | -6.05 | 0.47 | 0.69 1 × 10^−3 sec^−1 | – | – | –
2 | B1 | 1.91 ± 0.02 | 17.7 ± 0.4 | 8.1 ± 0.14 | -3.85 | 74.0 | 1.84 | 0.602 | -4.40 | 0.69 | 1.90 1 × 10^−3 sec^−1 | 3.85 kcal/mol and ~3.82 kcal/mol | single exponential folding behavior | –
3 | B2 | 1.05 ± 0.01 | 17.5 ± 0.3 | 4.4 ± 0.096 | 0.048 | 2.57 | -0.151 | -0.6 | -6.44 | 0.57 | 0.25 1 × 10^−3 sec^−1 | – | – | +15.0 kJ/mol
4 | B3 | 1.00 ± 0.02 | 16.6 ± 0.5 | 3.97 ± 0.12 | 0.263 | 7.29 | 0.468 | 0.502 | -6.44 | 0.80 | 1.60 1 × 10^−3 sec^−1 | – | – | –
5 | B4 | 1.47 ± 0.01 | 17.2 ± 0.5 | 6.05 ± 0.22 | -1.82 | 2.00 | -0.299 | -0.0598 | -3.70 | 0.95 | 0.62 1 × 10^−3 sec^−1 | – | – | –
